These are literature values, as cited in publication PMC3036710.

What all share (assay): solid-phase binding
Series [1] addresses CML-bovine serum albumin (Bos taurus) (UniProt P02769).
The target of another series is HMGB-1 (Homo sapiens) (UniProt P09429).
In series [2] the target is S100b calgranulin (Homo sapiens) (UniProt P04271).
UniProt P04271, sequence (P04271 2-92): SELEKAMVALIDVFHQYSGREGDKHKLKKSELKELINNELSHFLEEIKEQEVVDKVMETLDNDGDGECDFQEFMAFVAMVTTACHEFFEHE

UniProt P02769, sequence (P02769 25-607): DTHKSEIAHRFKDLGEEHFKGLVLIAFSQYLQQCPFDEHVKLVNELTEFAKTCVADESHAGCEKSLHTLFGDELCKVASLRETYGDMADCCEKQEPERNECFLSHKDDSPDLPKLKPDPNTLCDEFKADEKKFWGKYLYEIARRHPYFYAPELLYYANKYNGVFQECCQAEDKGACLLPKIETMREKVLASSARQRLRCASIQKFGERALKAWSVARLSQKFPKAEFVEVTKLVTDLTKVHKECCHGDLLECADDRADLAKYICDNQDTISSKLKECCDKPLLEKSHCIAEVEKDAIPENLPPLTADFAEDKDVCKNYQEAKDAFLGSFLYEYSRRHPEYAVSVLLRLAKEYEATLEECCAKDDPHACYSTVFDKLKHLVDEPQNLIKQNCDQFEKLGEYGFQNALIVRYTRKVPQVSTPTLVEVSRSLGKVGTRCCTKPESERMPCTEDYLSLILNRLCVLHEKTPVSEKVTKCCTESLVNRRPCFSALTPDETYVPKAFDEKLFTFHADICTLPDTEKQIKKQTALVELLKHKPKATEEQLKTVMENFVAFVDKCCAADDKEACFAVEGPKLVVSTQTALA
UniProt P09429, sequence (P09429 whole entry): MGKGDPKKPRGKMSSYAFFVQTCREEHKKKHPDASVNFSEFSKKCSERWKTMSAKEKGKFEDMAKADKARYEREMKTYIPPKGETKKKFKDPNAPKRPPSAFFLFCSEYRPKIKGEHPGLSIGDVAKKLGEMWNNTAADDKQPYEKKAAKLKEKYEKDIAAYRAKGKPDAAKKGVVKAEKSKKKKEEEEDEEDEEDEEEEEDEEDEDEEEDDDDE

Broadly, the Kd is the equilibrium constant for the complex coming apart. For RAGE (from UniProt Q15109), the values for the equilibrium dissociation constant (Kd) (in series [1]; in the series with HMGB-1 (Homo sapiens); in series [2]) were 0.43 nM, 0.64 nM and 0.45 nM, respectively.
